Assay results published in PMC6723090.

Biological target: synthetic CDR1 peptide … with N-terminal Biotin-[TTDS] linker (human)
Test: affinity purification with mass spectrometry; spike-in: 2 ug recombinant HTRA2 added to 5 mg homogenized pig retina; beads with CDR peptide, scrambled peptide or biotin only (n = 3); eluates on 1-D SDS-PAGE, gel region above 49 kDa digested with trypsin, LC-MS/MS intensity of HTRA2

Substance: recombinant HTRA2/Omi (Human Serine Protease, cat. no. C760) (from UniProt O43464 32-458) (enzyme)
- LC-MS intensity of recovered HTRA2: 4.2e+08
